Measurements reported in article PMC9923440.

Target: SARS-CoV-2 spike protein ectodomain mutant S12AAA (L1145A-F1148A-L1152A) (SARS-CoV-2), P0DTC2
Test: pull-down
Conditions: remark: other sources report otherwise

B1: resistance to inhibitor of cholinesterase-3 (RIC3), Q7Z5B4 29-369 (natural protein)
chain: SRGKRQEPPPTPEGKLGRFPPMMHHHQAPSDGQTPGARFQRSHLAEAFAKAKGSGGGAGGGGSGRGLMGQIIPIYGFGIFLYILYILFKLSKGKTTAEDGKCYTAMPGNTHRKITSFELAQLQEKLKETEAAMEKLINRVGPNGESRAQTVTSDQEKRLLHQLREITRVMKEGKFIDRFSPEKEAEEAPYMEDWEGYPEETYPIYDLSDCIKRRQETILVDYPDPKELSAEEIAERMGMIEEEESDHLGWESLPTDPRAQEDNSVTSCDPKPETCSCCFHEDEDPAVLAENAGFSADSYPEQEETTKEEWSQDFKDEGLGISTDKAYTGSMLRKRNPQGLE
- decrease in RIC3 binding vs S12: 67%
